± gives the uncertainty stated by the source.
B1: POU domain, class 6, transcription factor 2, residues 609 to 663; numbered along this chain, P78424 (parent)
chain: KRRTSFTPQALEILNAHFEKNTHPSGQEMTEIAEKLNYDREVVRVWFCNKRQALK

Variants of: B1
Experiment: abundance fitness (aPCA) (normalised: wild type 0, dead -1); higher = more abundant; growth selection in yeast, the domain comes from the species named
Settings: Homo sapiens

Variant | abundance fitness
KRRTSFTPQALEILNAHFEKNTHPSGQEMTEIAEKLNYDREVVRVWFCNDRQALK | -0.946 ± 0.17
KRRTSFTPQALEILNAHFEKNTHPSGQEMTEIAEKLNYDREVVRVWFCNARQALK | -0.125 ± 0.097
KRRTSFTPQALEILNAHFEKNTHPSGQEMTEIAEKLNYDREVVRVWFCNLRQALK | -0.834 ± 0.11
KRRTSFTPQALEILNAHFEKNTHPSGQEMTEIAEKLNYDREVVRVWFCNIRQALK | -0.916 ± 0.19
KRRTSFTPQALEILNAHFEKNTHPSGQEMTEIAEKLNYDREVVRVWFCNNRQALK | -0.222 ± 0.27
KRRTSFTPQALEILNAHFEKNTHPSGQEMTEIAEKLNYDREVVRVWFCNRRQALK | 0.022 ± 0.071
KRRTSFTPQALEILNAHFEKNTHPSGQEMTEIAEKLNYDREVVRVWFCNGRQALK | -0.491 ± 0.074
KRRTSFTPQALEILNAHFEKNTHPSGQEMTEIAEKLNYDREVVRVWFCNCRQALK | -0.662 ± 0.25
KRRTSFTPQALEILNAHFEKNTHPSGQEMTEIAEKLNYDREVVRVWFCNMRQALK | -0.184 ± 0.17
KRRTSFTPQALEILNAHFEKNTHPSGQEMTEIAEKLNYDREVVRVWFCNHRQALK | -0.444 ± 0.29
KRRTSFTPQALEILNAHFEKNTHPSGQEMTEIAEKLNYDREVVRVWFCNERQALK | -0.156 ± 0.14
KRRTSFTPQALEILNAHFEKNTHPSGQEMTEIAEKLNYDREVVRVWFCNFRQALK | -1.15 ± 0.31
KRRTSFTPQALEILNAHFEKNTHPSGQEMTEIAEKLNYDREVVRVWFCNPRQALK | -1.19 ± 0.36
KRRTSFTPQALEILNAHFEKNTHPSGQEMTEIAEKLNYDREVVRVWFCRKRQALK | -0.157 ± 0.084
KRRTSFTPQALEILNAHFEKNTHPSGQEMTEIAEKLNYDREVVRVWFCEKRQALK | 0.177 ± 0.16
KRRTSFTPQALEILNAHFEKNTHPSGQEMTEIAEKLNYDREVVRVWFCFKRQALK | -0.292 ± 0.19
KRRTSFTPQALEILNAHFEKNTHPSGQEMTEIAEKLNYDREVVRVWFCIKRQALK | -0.226 ± 0.27
KRRTSFTPQALEILNAHFEKNTHPSGQEMTEIAEKLNYDREVVRVWFCLKRQALK | -0.292 ± 0.1
KRRTSFTPQALEILNAHFEKNTHPSGQEMTEIAEKLNYDREVVRVWFCMKRQALK | -0.177 ± 0.11
KRRTSFTPQALEILNAHFEKNTHPSGQEMTEIAEKLNYDREVVRVWFCPKRQALK | -0.683 ± 0.25
KRRTSFTPQALEILNAHFEKNTHPSGQEMTEIAEKLNYDREVVRVWFCSKRQALK | -0.061 ± 0.096
KRRTSFTPQALEILNAHFEKNTHPSGQEMTEIAEKLNYDREVVRVWFCAKRQALK | -0.038 ± 0.14
KRRTSFTPQALEILNAHFEKNTHPSGQEMTEIAEKLNYDREVVRVWFCQKRQALK | 0.03 ± 0.24
KRRTSFTPQALEILNAHFEKNTHPSGQEMTEIAEKLNYDREVVRVWFCDKRQALK | -0.152 ± 0.16

Variant | abundance fitness
KRRTSFTPQALEILNAHFEKNTHPSGQEMTEIAEKLNYDREVVRVWFCWKRQALK | -0.339 ± 0.11
KRRTSFTPQALEILNAHFEKNTHPSGQEMTEIAEKLNYDREVVRVWFCGKRQALK | -0.13 ± 0.11
KRRTSFTPQALEILNAHFEKNTHPSGQEMTEIAEKLNYDREVVRVWFCYKRQALK | -0.218 ± 0.14
KRRTSFTPQALEILNAHFEKNTHPSGQEMTEIAEKLNYDREVVRVWFCHKRQALK | -0.18 ± 0.2
KRRTSFTPQALEILNAHFEKNTHPSGQEMTEIAEKLNYDREVVRVWFCKKRQALK | 0.008 ± 0.13
KRRTSFTPQALEILNAHFEKNTHPSGQEMTEIAEKLNYDREVVRVWFCVKRQALK | -0.138 ± 0.1
KRRTSFTPQALEILNAHFEKNTHPSGQEMTEIAEKLNYDREVVRLWFCNKRQALK | 0.02 ± 0.099
KRRTSFTPQALEILNAHFEKNTHPSGQEMTEIAEKLNYDREVVRYWFCNKRQALK | -0.653 ± 0.29
KRRTSFTPQALEILNAHFEKNTHPSGQEMTEIAEKLNYDREVVRFWFCNKRQALK | -0.243 ± 0.12
KRRTSFTPQALEILNAHFEKNTHPSGQEMTEIAEKLNYDREVVRDWFCNKRQALK | 0.094 ± 0.23
KRRTSFTPQALEILNAHFEKNTHPSGQEMTEIAEKLNYDREVVRKWFCNKRQALK | -0.149 ± 0.15
KRRTSFTPQALEILNAHFEKNTHPSGQEMTEIAEKLNYDREVVRMWFCNKRQALK | 0.07 ± 0.48
KRRTSFTPQALEILNAHFEKNTHPSGQEMTEIAEKLNYDREVVRRWFCNKRQALK | 0.018 ± 0.098
KRRTSFTPQALEILNAHFEKNTHPSGQEMTEIAEKLNYDREVVRWWFCNKRQALK | -0.055 ± 0.14
KRRTSFTPQALEILNAHFEKNTHPSGQEMTEIAEKLNYDREVVRGWFCNKRQALK | 0.03 ± 0.088
KRRTSFTPQALEILNAHFEKNTHPSGQEMTEIAEKLNYDREVVRPWFCNKRQALK | -0.706 ± 0.18
KRRTSFTPQALEILNAHFEKNTHPSGQEMTEIAEKLNYDREVVRAWFCNKRQALK | -0.029 ± 0.2
KRRTSFTPQALEILNAHFEKNTHPSGQEMTEIAEKLNYDREVVRIWFCNKRQALK | -0.068 ± 0.13
KRRTSFTPQALEILNAHFEKNTHPSGQEMTEIAEKLNYDREVVRQWFCNKRQALK | -0.296 ± 0.18
KRRTSFTPQALEILNAHFEKNTHPSGQEMTEIAEKLNYDREVVREWFCNKRQALK | -0.194 ± 0.23
KRRTSFTPQALEILNAHFEKNTHPSGQEMTEIAEKLNYDREVVRHWFCNKRQALK | -0.141 ± 0.17
KRRTSFTPQALEILNAHFEKNTHPSGQEMTEIAEKLNYDREVVRVWICNKRQALK | -0.782 ± 0.12
KRRTSFTPQALEILNAHFEKNTHPSGQEMTEIAEKLNYDREVVRVWWCNKRQALK | -0.168 ± 0.058
KRRTSFTPQALEILNAHFEKNTHPSGQEMTEIAEKLNYDREVVRVWYCNKRQALK | -0.162 ± 0.1

— the Human Domainome abundance scans (Beltran et al. 2025)
